In patent US10450570B2, “Compositions and methods for controlling vasculature” (YALE UNIVERSITY, priority 2016, dated 2019):

B1: VEGFD: Human VEGFD growth factor purchased from Peprotech (protein, UniProt O43915 89-205, looked up)
Vascular endothelial growth …: FAATFYDIETLKVIDEEWQRTQCSPRETCVEVASELGKSTNTFFKPPCVNVFRCGGCCNEESLICMNTSTSYISKQLFEISVPLTSVPELVPVKVANHTGCKCLPTAPRHPYSIIRR
B2: VEGFC: Human VEGFC growth factor purchased from Peprotech (protein, UniProt P49767 112-227, looked up)
Vascular endothelial growth …: AHYNTEILKSIDNEWRKTQCMPREVCIDVGKEFGVATNTFFKPPCVSVYRCGGCCNSEGLQCMNTSTSYLSKTLFEITVPLSQGPKPVTISFANHTSCRCMSKLDVYRQVHSIIRR
B3: sFGFR1-IIIC: soluble pan-FGF receptor trap, delivered by adenovirus (protein, UniProt P11362 22-376, looked up)
extracellular domain: RPSPTLPEQAQPWGAPVEVESFLVHPGDLLQLRCRLRDDVQSINWLRDGVQLAESNRTRITGEEVEVQDSVPADSGLYACVTSSPSGSDTTYFSVNVSDALPSSEDDDDDDDSSSEEKETDNTKPNRMPVAPYWTSPEKMEKKLHAVPAAKTVKFKCPSSGTPNPTLRWLKNGKEFKPDHRIGGYKVRYATWSIIMDSVVPSDKGNYTCIVENEYGSINHTYQLDVVERSPHRPILQAGLPANKTVALGSNVEFMCKVYSDPQPHIQWLKHIEVNGSKIGPDNLPYVQILKTAGVNTTDKEMEVLHLRNVSFEDAGEYTCLAGNSIGLSHHSAWLTVLEALEERPAVMTSPLYLE
modifications: extracellular domain IIIc isoform, adenovirus-delivered
B4: PDGFBB: platelet-derived growth factor-BB, purchased from Peprotech (protein, UniProt P01127 82-190, looked up)
Platelet-derived growth …: SLGSLTIAEPAMIAECKTRTEVFEISRRLIDRTNANFLVWPPCVEVQRCSGCCNNRNVQCRPTQVQLRPVQVRKIEIVRKKPIFKKATVTLEDHLACKCETVAAARPVT

Key:
HDLECs = assay: Glycolytic flux measurement (5-3H-glucose); assay type: cell-based, human
Method: Glycolysis was measured as previously described. Briefly, subconfluent HDLECs cultured in 12-well plates were incubated with 1 ml/well EBM2 medium (containing appropriate amount of serum and supplement) with 80 μCi/mmol 5-^3H-glucose (Perkin Elmer) for 2-3 hr. Then 0.8 ml/well medium was transferred into glass vials with hanging wells and filter papers soaked with H2O. After incubation in a cell culture incubator for at least 2 days to reach saturation, filter papers were taken out and the amount of evaporated ^3H2O was measured in a scintillation counter. Glucose oxidation, glutamine oxidation and fatty acid oxidation were measured essentially as reported. For measurement of glucose uptake, HDLECs were incubated with 2-[1-^14C]-deoxy-D-glucose (2.5 μCi/ml, Perkin Elmer) for 10 min. before PBS washing (at least 3 times to get rid of all radioactive medium) and then lysis with 500 μL 0.1 N NaOH. 400 μl NaOH cell lysate for each sample was transferred to scintillation vials containing scintillation liquid and measured.

[1] = tested on: HK2 and other glycolytic enzymes in HDLECs; assay: Western blot of glycolytic enzyme expression in HDLECs; assay type: cell-based, human; conditions: protein
Method: (§1) Human dermal lymphatic endothelial cells (HDLECs, HMVEC-dLyNeo-Der Lym Endo EGM-2MV) and Pooled human umbilical vein endothelial cells (HUVECs) were purchased from Lonza and cultured in EBM2 basal medium with EGM-2 MV BulletKit. Both cell types were tested negative for mycoplasma in Lonza. Culture medium was changed every the other day. Tissue culture plates were coated with 0.1% gelatin (Sigma) for 30 min at 37° C. and washed with Dulbecco's Phosphate-Buffered Saline (Life Technologies) before cell plating. For siRNA-mediated gene knockdown, FGFR1 siRNA (ON-TARGETplus human FGFR1 siRNA, Dharmacon; Hs_FGFR1_6, Qiagen), FGFR3 siRNA (Hs_FGFR3_6, Qiagen), HK2 siRNA (s6562 human HK2 siRNA, Life Technologies), c-Myc siRNA (ON-TARGETplus human Myc siRNA, Dharmacon), AllStar negative control siRNA (Qiagen), and ON-TARGETplus Non-targeting pool (Dharmacon) were transfected by lipofectamine RNAimax reagent (Life Technologies). Human FGF2 was provided by Kaken Pharmaceutical Co, Ltd (Japan) and ordered from Peprotech. Human VEGFC, VEGFD, IGF1, IGF2 and PDGFBB were purchased from Peprotech. To assay the effect of FGFR1 knockdown on glycolytic enzyme expression, HDLECs, transfected with control or FGFR1 siRNA 3 days in advance, were replated and collected for protein analysis 24 hr later when the cell confluency reached ˜80%. […] ImageJ was used for densitometry quantification of western blot bands.

[2] = tested on: tail skin lymphatic formation; assay: Tail skin lymphatic formation in neonatal mice after adenovirus injection; assay type: in vivo; conditions: adenovirus injected into mouse pups at P0 and P1, examined at P6
Text: Adenovirus encoding GFP, empty CMV vector, sFGFR1-IIIC (Murakami, M. et al., 118, 3355-3366, (2008)), HK2 (Wu, R. et al. Circulation research 108, 60-69, (2011)), or Myc (from Vector Biolabs) for in vitro experiments was amplified in 293A cells according to the user manual of ViraPower™ Adenoviral Expression System (Life Technologies). Virus was tittered using Adeno-X™ Rapid Titer Kit (Clontech Laboratories). For in vivo experiments, LacZ- or sFGFR1-IIIC was amplified and purified at University of North Carolina virus vector core. Neonatal pups were injected i.p. with 5×10^8 FFU of LacZ or sFGFR1-IIIC virus at P0 and P1. Tail skin was harvested at P6 using a method published previously (Xu, Y. et al., J Cell Biol 188, 115-130, (2010)).

[3] = tested on: FGF2-induced ERK activation in HDLECs; assay: FGF2-induced ERK activation, Western blot of phosphorylated and total ERK; assay type: cell-based, human; conditions: HDLECs infected with adenovirus, serum-starved, stimulated with FGF2
Method: as §1, with “bands. […]” for “bands.”

Row | Molecule | glycolytic flux (HDLECs) | glycolytic enzyme (HK2) expression [1] | tail skin lymphatic formation [2] | FGF2-induced ERK activation [3]
1 | B1 | no effect |  |  | 
2 | B2 | increased glycolytic flux, albeit to a lesser extent than FGF2 | increased HK2 expression without affecting other enzymes |  | 
3 | B3 |  |  | significant inhibition of tail skin lymphatic formation | inhibited FGF2-induced ERK activation to the same extent as DN-FGFR1
4 | B4 | reduced flux |  |  | 
